Molecular target: endogenous cTn(I-C) dimer (cTnI with TnC) (human (endogenous in heart tissue)) (UniProt P19429)
Assay: native MS; native top-down MS on a 12-T FTICR, nanoelectrospray by direct infusion, 200 mM ammonium acetate; the heterotrimer was enriched as a whole from heart tissue on NP-Pep, isolated and its subunits ejected by CAD (complex-up, complex-down)

Sequence of endogenous cTn(I-C) dimer (cTnI with TnC) (human (endogenous in heart tissue)) (P19429 whole entry, the tested form may be a part): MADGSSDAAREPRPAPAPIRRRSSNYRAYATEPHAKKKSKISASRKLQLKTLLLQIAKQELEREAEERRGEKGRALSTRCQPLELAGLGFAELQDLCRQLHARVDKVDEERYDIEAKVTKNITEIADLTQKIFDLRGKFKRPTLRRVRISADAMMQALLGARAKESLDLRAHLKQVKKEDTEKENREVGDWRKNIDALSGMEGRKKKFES

## endogenous cardiac troponin T (cTnT) (natural protein)
  stoichiometry N (cTnT:cTnI:TnC): 1

Source: paper PMC10350235
